Data: patent publication US20080213836
Changes are numbered by the printed parent chain. Names and notes keep the numbering of the source.

Legend:
[1] = molecular target: T1, Boc-Glu(OBzl)-Ala-Arg-MCA
T1 chain: EAR

[2] = molecular target: D4K-cleavage site-containing control protein (Novagen)
[3] = molecular target: T2, Gly-Asp-Asp-Asp-Asp-Lys-β-naphthylamide
T2 chain: GDDDDK

[4] = molecular target: Human plasma fibronectin, P02751
Pro-Phe-Arg-MCA = molecular target: T3, Pro-Phe-Arg-MCA
T3 chain: PFR

Z-Phe-Arg-MCA = molecular target: T4, Z-Phe-Arg-MCA
T4 chain: FR

human fibrinogen, P02671 = molecular target: T5, human fibrinogen, P02671
T5 chain 1: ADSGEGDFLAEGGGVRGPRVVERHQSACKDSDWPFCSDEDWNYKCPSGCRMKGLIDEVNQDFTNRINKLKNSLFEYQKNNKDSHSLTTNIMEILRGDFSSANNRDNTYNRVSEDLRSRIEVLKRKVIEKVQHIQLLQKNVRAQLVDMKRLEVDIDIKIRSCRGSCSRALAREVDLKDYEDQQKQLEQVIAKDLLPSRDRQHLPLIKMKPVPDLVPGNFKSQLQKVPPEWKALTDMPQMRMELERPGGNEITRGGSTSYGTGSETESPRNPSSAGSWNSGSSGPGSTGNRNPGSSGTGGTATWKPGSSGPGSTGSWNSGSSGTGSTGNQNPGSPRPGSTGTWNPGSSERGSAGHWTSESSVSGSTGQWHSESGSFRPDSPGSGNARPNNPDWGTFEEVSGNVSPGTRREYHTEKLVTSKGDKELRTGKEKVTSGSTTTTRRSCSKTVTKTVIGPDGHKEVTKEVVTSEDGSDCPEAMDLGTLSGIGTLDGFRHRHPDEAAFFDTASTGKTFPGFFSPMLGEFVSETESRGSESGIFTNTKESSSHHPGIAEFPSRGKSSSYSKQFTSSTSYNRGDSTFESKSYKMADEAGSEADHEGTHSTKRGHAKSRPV
T5 chain 2: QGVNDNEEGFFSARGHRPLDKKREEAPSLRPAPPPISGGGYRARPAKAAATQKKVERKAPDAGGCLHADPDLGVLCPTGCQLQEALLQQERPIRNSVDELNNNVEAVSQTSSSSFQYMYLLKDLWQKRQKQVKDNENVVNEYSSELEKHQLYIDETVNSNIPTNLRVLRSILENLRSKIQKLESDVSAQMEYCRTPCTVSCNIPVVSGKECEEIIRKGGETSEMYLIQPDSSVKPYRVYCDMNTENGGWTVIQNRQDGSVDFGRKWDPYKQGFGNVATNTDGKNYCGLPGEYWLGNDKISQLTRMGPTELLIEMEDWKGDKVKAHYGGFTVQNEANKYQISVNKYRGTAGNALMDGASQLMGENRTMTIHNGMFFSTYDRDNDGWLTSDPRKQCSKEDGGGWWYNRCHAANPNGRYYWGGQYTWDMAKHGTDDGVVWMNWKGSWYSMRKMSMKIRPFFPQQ
T5 chain 3: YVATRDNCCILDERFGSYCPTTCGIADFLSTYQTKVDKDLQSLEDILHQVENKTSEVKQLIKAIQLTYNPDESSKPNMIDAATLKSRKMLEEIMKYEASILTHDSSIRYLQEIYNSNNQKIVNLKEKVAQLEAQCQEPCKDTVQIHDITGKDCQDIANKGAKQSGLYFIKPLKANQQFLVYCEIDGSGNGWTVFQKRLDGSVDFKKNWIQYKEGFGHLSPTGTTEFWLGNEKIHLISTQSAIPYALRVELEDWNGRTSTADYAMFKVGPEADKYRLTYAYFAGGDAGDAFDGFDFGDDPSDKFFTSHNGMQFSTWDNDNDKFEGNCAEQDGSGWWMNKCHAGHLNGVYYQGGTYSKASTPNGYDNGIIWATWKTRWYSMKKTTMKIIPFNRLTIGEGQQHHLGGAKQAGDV

[5] = molecular target: T6, human high-molecular-weight (HMW) kininogen, P01042
T6 chain: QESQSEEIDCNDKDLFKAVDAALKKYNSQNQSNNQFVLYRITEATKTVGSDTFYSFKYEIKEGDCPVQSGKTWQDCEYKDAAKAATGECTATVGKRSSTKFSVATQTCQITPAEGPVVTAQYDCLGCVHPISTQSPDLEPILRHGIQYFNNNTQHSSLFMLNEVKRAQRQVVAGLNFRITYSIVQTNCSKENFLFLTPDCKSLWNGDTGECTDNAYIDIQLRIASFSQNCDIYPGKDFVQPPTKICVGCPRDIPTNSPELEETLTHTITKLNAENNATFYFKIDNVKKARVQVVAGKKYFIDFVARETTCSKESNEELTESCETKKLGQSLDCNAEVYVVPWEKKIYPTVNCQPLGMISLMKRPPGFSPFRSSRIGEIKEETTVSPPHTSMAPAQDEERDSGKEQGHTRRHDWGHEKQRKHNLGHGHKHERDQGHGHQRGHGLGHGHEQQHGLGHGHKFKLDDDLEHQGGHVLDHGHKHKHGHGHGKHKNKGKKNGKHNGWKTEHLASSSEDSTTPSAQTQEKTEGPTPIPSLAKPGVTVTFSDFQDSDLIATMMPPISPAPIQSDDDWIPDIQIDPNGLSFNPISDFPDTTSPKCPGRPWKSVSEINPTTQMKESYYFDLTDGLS

[6] = molecular target: human single-chain tPA fusion protein with N-terminal His-tag/EP-cleavage site, P00750
[7] = molecular target: recombinant fusion protein of Medaka gelatinase A
[8] = molecular target: T7, recombinant fusion protein of human kallikrein 8 (hK8), O60259
T7 sequence (O60259 whole entry, looked up): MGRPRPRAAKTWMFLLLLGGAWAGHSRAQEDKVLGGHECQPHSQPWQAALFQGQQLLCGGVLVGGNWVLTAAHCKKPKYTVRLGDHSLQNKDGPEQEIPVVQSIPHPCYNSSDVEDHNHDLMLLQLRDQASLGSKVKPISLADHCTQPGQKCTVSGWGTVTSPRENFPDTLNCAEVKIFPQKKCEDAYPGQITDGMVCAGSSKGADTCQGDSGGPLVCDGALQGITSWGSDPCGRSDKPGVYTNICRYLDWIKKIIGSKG

[9] = molecular target: recombinant fusion protein of Medaka trypsinogen

Chain of Human plasma fibronectin, P02751 (P02751 other isoform, or with tags, fused parts or gaps): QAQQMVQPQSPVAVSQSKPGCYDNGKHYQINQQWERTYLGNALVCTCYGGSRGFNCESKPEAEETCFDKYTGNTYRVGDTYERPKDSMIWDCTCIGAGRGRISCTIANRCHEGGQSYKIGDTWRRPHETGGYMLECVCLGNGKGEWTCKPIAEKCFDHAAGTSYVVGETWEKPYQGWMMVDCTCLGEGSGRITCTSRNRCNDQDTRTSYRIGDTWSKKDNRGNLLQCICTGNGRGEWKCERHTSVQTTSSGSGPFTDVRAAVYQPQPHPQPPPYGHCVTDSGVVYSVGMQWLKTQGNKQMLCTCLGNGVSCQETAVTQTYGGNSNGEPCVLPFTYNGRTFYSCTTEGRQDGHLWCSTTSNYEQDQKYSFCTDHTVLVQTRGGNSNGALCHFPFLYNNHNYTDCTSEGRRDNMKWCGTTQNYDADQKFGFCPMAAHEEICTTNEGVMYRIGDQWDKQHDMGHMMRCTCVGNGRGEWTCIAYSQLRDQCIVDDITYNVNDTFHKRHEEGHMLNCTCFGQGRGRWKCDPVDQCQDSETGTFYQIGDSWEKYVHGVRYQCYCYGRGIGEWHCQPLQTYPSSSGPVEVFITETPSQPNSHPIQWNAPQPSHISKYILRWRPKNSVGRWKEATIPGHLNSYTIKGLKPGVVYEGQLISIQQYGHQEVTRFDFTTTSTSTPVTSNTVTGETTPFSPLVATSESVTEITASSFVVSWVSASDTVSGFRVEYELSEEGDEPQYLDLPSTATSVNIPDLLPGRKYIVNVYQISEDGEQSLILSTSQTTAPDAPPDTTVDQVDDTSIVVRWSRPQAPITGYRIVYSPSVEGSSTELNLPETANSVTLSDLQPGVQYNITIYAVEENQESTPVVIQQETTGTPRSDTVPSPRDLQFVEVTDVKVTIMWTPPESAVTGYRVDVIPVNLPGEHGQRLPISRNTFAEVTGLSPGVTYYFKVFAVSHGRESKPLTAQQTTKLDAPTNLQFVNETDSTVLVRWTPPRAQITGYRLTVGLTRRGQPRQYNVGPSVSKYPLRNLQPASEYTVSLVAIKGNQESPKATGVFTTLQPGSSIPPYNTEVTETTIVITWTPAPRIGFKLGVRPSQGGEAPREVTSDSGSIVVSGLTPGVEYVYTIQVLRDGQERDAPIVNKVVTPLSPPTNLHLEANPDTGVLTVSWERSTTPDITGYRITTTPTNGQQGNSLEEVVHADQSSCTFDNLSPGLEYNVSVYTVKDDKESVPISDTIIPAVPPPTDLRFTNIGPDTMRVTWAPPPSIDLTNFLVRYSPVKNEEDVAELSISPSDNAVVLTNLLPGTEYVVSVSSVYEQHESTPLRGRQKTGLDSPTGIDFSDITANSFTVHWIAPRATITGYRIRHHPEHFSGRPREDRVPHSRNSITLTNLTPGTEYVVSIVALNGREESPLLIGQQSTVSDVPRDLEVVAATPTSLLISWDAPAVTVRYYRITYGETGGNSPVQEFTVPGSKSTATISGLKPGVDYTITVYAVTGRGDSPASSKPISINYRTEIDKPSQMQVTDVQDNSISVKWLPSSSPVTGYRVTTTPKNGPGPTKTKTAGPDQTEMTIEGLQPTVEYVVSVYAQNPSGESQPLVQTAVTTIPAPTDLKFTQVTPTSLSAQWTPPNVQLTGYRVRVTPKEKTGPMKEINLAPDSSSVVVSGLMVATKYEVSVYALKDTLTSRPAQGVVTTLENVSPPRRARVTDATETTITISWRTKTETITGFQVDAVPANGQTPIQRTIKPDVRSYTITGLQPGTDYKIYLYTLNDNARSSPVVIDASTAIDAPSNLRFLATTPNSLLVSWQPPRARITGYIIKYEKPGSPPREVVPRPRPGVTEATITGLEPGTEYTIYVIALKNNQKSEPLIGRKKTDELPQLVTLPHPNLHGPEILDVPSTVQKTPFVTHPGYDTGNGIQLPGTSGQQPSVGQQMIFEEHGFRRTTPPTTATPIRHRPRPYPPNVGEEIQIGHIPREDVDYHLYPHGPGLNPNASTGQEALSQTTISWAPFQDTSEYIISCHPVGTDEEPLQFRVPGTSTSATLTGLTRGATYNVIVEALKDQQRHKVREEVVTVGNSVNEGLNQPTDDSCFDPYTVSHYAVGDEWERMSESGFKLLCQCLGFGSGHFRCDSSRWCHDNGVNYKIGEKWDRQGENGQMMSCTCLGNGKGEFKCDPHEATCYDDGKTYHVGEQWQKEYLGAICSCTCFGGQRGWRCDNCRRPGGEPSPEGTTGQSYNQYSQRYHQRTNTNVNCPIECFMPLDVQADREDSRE
Chain of human single-chain tPA fusion protein with N-terminal His-tag/EP-cleavage site, P00750 (P00750 whole entry, looked up, the tested form may be a part): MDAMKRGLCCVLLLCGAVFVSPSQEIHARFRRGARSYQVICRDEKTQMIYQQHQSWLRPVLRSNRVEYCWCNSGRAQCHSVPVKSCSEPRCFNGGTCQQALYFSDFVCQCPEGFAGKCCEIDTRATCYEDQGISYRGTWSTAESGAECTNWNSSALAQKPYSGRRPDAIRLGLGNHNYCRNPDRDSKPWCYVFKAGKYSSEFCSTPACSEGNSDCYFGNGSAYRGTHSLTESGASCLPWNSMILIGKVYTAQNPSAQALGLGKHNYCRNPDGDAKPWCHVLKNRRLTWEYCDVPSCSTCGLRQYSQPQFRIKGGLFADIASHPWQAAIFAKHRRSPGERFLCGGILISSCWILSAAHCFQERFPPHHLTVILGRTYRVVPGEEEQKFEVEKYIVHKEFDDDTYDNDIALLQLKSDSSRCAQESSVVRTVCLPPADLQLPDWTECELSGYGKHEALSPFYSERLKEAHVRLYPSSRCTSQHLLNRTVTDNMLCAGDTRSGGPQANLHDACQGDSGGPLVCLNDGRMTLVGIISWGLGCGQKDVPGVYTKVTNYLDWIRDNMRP

B1: porcine EP serine protease domain (Ile800 to His1034) (protein)
chain: IVGGNDSREGAWPWVVALYYNGQLLCGASLVSRDWLVSAAHCVYGRNLEPSKWKAILGLHMTSNLTSPQIVTRLIDEIVINPHYNRRRKDSDIAMMHLEFKVNYTDYIQPICLPEENQVFPPGRICSIAGWGKVIYQGSPADILQEADVPLLSNEKCQQQMPEYNITENMMCAGYEEGGIDSCQGDSGGPLMCLENNRWLLAGVTSFGYQCALPNRPGVYARVPKFTEWIQSFLH
Km [1]: 300 µM | kcat [1]: 1.83 s⁻¹ | kcat/Km (mM^-1 · min^-1) [1]: 370 | cleavage of the fusion protein (SDS-PAGE) [2]: the mammalian enzymes not only produced the two expected polypeptides but also further degraded the products | Km [3]: 400 µM | kcat [3]: 8.83 s⁻¹ | kcat/Km (mM^-1 · min^-1) [3]: 1300 | proteolytic activity (SDS-PAGE) [4]: these substrates were detectably hydrolyzed by the mammalian proteases | Km (Pro-Phe-Arg-MCA): 3900 µM | kcat (Pro-Phe-Arg-MCA): 5 s⁻¹ | kcat/Km (mM^-1 · min^-1) (Pro-Phe-Arg-MCA): 77 | Km (Z-Phe-Arg-MCA): 200 µM | kcat (Z-Phe-Arg-MCA): 0.917 s⁻¹ | kcat/Km (mM^-1 · min^-1) (Z-Phe-Arg-MCA): 280 | proteolytic activity (gelatin zymography) (gelatin): these substrates were detectably hydrolyzed by the mammalian proteases | nonspecific proteolytic activity (SDS-PAGE) (human fibrinogen, P02671): both of which were degraded noticeably by mammalian EP proteases | nonspecific proteolytic activity (SDS-PAGE) [5]: both of which were degraded noticeably by mammalian EP proteases | cleavage of the fusion protein (SDS-PAGE/Western blot) [6]: but not with mammalian ones, showed two polypeptides (53- and 55-kDa) | proteolytic activity (SDS-PAGE) (mouse laminin): these substrates were detectably hydrolyzed by the mammalian proteases | cleavage of the fusion protein (SDS-PAGE) [7]: the fusion protein was extensively digested by mammalian EP serine proteases | cleavage of the fusion protein (SDS-PAGE) [8]: the porcine protease extensively degraded the substrate

B2: Medaka EP-1 serine protease domain (wild-type) (protein)
chain: VVGGVNAEKGAWPWMVSLHWRGRHGCGASLIGRDWLLTAAHCVYGKNTHLQYWSAVLGLHAQSSMNSQEVQIRQVDRIIINKNYNRRTKEADIAMMHLQQPVNFTEWVLPVCLASEDQHFPAGRRCFIAGWGRDAEGGSLPDILQEAEVPLVDQDECQRLLPEYTFTSSMLCAGYPEGGVDSCQGDSGGPLMCLEDARWTLIGVTSFGVGCGRPERPGAYARVSAFTSWIAETRRSSFSDLD
Km [1]: 200 µM | amidolytic activity [1]: much lower than those of the EP proteases of mammalian origin | kcat [1]: 0.112 s⁻¹ | kcat/Km (mM^-1 · min^-1) [1]: 34 | cleavage of the fusion protein (SDS-PAGE) [2]: the Medaka protease specifically cleaved the fusion protein to generate two polypeptides having expected molecular masses of 16- and 32-kDa | Km [3]: 700 µM | cleavage rate [3]: cleaved GD4K-βNA at a rate comparable to those of the porcine and bovine enzymes | enzyme activity for GD4K-βNA [3]: EP-1 was approximately three times more active than EP-2 | kcat [3]: 15.7 s⁻¹ | kcat/Km (mM^-1 · min^-1) [3]: 1300 | proteolytic activity (SDS-PAGE) [4]: Little or no hydrolysis was observed with the fish enzyme for the proteins | Km (Pro-Phe-Arg-MCA): 10000 µM | amidolytic activity (Pro-Phe-Arg-MCA): much lower than those of the EP proteases of mammalian origin | kcat (Pro-Phe-Arg-MCA): 2.33 s⁻¹ | kcat/Km (mM^-1 · min^-1) (Pro-Phe-Arg-MCA): 14 | Km (Z-Phe-Arg-MCA): 100 µM | amidolytic activity (Z-Phe-Arg-MCA): much lower than those of the EP proteases of mammalian origin | kcat (Z-Phe-Arg-MCA): 0.0483 s⁻¹ | kcat/Km (mM^-1 · min^-1) (Z-Phe-Arg-MCA): 29 | proteolytic activity (gelatin zymography) (gelatin): Little or no hydrolysis was observed with the fish enzyme for the proteins | cleavage of the fusion protein (SDS-PAGE/Western blot) [6]: The protein samples treated with the Medaka wild-type or mutant EP proteases, but not with mammalian ones, showed two polypeptides (53- and 55-kDa) | proteolytic activity (SDS-PAGE) (mouse laminin): Little or no hydrolysis was observed with the fish enzyme for the proteins | cleavage of the fusion protein (SDS-PAGE) [7]: A 60-kDa fusion protein was converted by wild-type or mutant proteases to a 55-kDa protein | conversion of trypsinogen to active trypsin [9]: The trypsinogen was converted to active trypsin by EP-1 faster than by EP-2 | cleavage of the fusion protein (SDS-PAGE) [8]: Digestion with Medaka wild-type and mutant EP proteases generated 31.5-kDa active hK8 by cleaving the D4K sequence

B3: Medaka EP-1 serine protease domain mutant E173A (protein)
chain: B2 chain with E156A
Km [1]: 1000 µM | enzyme activity against wild-type [1]: The same held true for all the other mutants except for F144A | kcat [1]: 0.167 s⁻¹ | kcat/Km (mM^-1 · min^-1) [1]: 10 | Km [3]: 300 µM | enzyme activity against wild-type [3]: The same held true for all the other mutants except for F144A | kcat [3]: 5.33 s⁻¹ | kcat/Km (mM^-1 · min^-1) [3]: 1100 | hydrolysis [4]: Neither human fibronectin nor laminin was hydrolyzed by the mutants (data not shown) | Km (Pro-Phe-Arg-MCA): 1000 µM | enzyme activity against wild-type (Pro-Phe-Arg-MCA): The same held true for all the other mutants except for F144A | kcat (Pro-Phe-Arg-MCA): 0.153 s⁻¹ | kcat/Km (mM^-1 · min^-1) (Pro-Phe-Arg-MCA): 9 | Km (Z-Phe-Arg-MCA): 400 µM | enzyme activity against wild-type (Z-Phe-Arg-MCA): The same held true for all the other mutants except for F144A | kcat (Z-Phe-Arg-MCA): 0.0383 s⁻¹ | kcat/Km (mM^-1 · min^-1) (Z-Phe-Arg-MCA): 6 | nonspecific proteolytic activity (human fibrinogen, P02671): this mutant enzyme still retained a low nonspecific proteolytic activity for protein substrates (HMW kininogen and fibrinogen) | nonspecific proteolytic activity (SDS-PAGE) (human fibrinogen, P02671): The mutant proteases had lower nonspecific proteolytic activity for ... human fibrinogen | nonspecific proteolytic activity [5]: this mutant enzyme still retained a low nonspecific proteolytic activity for protein substrates (HMW kininogen and fibrinogen) | nonspecific proteolytic activity (SDS-PAGE) [5]: The mutant proteases had lower nonspecific proteolytic activity for human HMW kininogen | D4K cleaving activity [6]: no serious reduction of the D4K cleaving activity for fusion proteins (gelatinase A, hK8, and tPA) | hydrolysis (mouse laminin): Neither human fibronectin nor laminin was hydrolyzed by the mutants (data not shown) | D4K cleaving activity [7]: no serious reduction of the D4K cleaving activity for fusion proteins (gelatinase A, hK8, and tPA) | activation of trypsinogen [9]: the other mutants activated trypsinogen at a reduced rate | conversion of trypsinogen to active enzyme [9]: A total of 12 mutants could convert the recombinant Medaka trypsinogen to its active enzyme (data not shown) | D4K cleaving activity [8]: no serious reduction of the D4K cleaving activity for fusion proteins (gelatinase A, hK8, and tPA)
